Experimental data published in the supplement of paper PMC11246515.
± gives the standard deviation of the averaged measurements.

Test: total protein half-life in vivo (active degradation + dilution); higher = more stable protein
[1] = E. coli NCM3722 delta-clpP delta-lon delta-hslV, growth: N-lim chemostat, doubling time 6 h
[2] = E. coli NCM3722 delta-clpP, growth: N-lim chemostat, doubling time 6 h
[3] = E. coli NCM3722 delta-hslV, growth: N-lim chemostat, doubling time 6 h
[4] = E. coli NCM3722 delta-lon, growth: N-lim chemostat, doubling time 6 h
[5] = E. coli NCM3722 delta-smpB, growth: N-lim chemostat, doubling time 6 h
[6] = wild type E. coli NCM3722, growth: C-lim chemostat, doubling time 3 h
[7] = wild type E. coli NCM3722, growth: C-lim chemostat, doubling time 6 h
[8] = wild type E. coli NCM3722, growth: C-lim chemostat, doubling time 12 h
[9] = wild type E. coli NCM3722, growth: N-lim chemostat, doubling time 6 h
[10] = wild type E. coli NCM3722, growth: N-lim chemostat, doubling time 12 h
[11] = wild type E. coli NCM3722, growth: P-lim chemostat, doubling time 6 h
[12] = wild type E. coli NCM3722, growth: P-lim chemostat, doubling time 12 h

Row | Sequence | total protein half-life in vivo [1] | total protein half-life in vivo [2] | total protein half-life in vivo [3] | total protein half-life in vivo [4] | total protein half-life in vivo [5] | total protein half-life in vivo [6] | total protein half-life in vivo [7] | total protein half-life in vivo [8] | total protein half-life in vivo [9] | total protein half-life in vivo [10] | total protein half-life in vivo [11] | total protein half-life in vivo [12]
1 | MRLCDRDIEAWLDEGRLSINPRPPVERINGATVDVRLGNKFRTFRGHTAAFIDLSGPKDEVSAALDRVMSDEIVLDEGEAFYLHPGELALAVTLESVTLPADLVGWLDGRSSLARLGLMVHVTAHRIDPGWSGCIVLEFYNSGKLPLALRPGMLIGALSFEPLSGPAVRPYNRREDAKYRNQQGAVASRIDKD | 3.92 ± 0.54 h | 3.36 ± 0.25 h | 3.062 ± 0.021 h | 4.56 ± 1.7 h | 3.14 ± 0.53 h | 2.852 ± 0.011 h | 4.81 ± 0.3 h | 7.69 ± 0.16 h | 3.17 ± 0.19 h | 4.96 ± 0.52 h | 5.25 ± 0.11 h | 10.4 ± 0.19 h
2 | MKWFNTLSHNRWLEQETDRIFDFGKNSVVPTGFGWLGNKGQIKEEMGTHLWITARMLHVYSVAAAMGRPGAYSLVDHGIKAMNGALRDKKYGGWYACVNDEGVVDASKQGYQHFFALLGAASAVTTGHPEARKLLDYTIEIIEKYFWSEEEQMCLESWDEAFSKTEEYRGGNANMHAVEAFLIVYDVTHDKKWLDRAIRVASVIIHDVARNNHYRVNEHFDTQWNPLPDYNKDNPAHRFRAFGGTPGHWIEWGRLMLHIHAALEARCEQPPAWLLEDAKGLFNATVRDAWAPDGADGIVYTVDWEGKPVVRERVRWPIVEAMGTAYALYTVTGDRQYETWYQTWWEYCIKYLMDYENGSWWQELDADNKVTTKVWDGKQDIYHLLHCLVIPRIPLAPGMAPAVAAGLLDINAK | 7.17 h |  |  |  |  |  | 4.37 h | 5.87 h |  |  |  | 
3 | MSLLAQLDQKIAANGGLIVSCQPVPDSPLDKPEIVAAMALAAEQAGAVAIRIEGVANLQATRAVVSVPIIGIVKRDLEDSPVRITAYIEDVDALAQAGADIIAIDGTDRPRPVPVETLLARIHHHGLLAMTDCSTPEDGLACQKLGAEIIGTTLSGYTTPETPEEPDLALVKTLSDAGCRVIAEGRYNTPAQAADAMRHGAWAVTVGSAITRLEHICQWYNTAMKKAVL [P0A761] |  | 5.64 h | 3.95 h | 4.21 ± 0.027 h | 4.27 h | 2.9 ± 0.27 h | 5.06 ± 0.56 h | 10.3 ± 1.4 h | 4.14 ± 0.36 h | 7.56 h | 5.84 ± 1 h | 9.47 ± 0.41 h
4 | MRILVLGVGNILLTDEAIGVRIVEALEQRYILPDYVEILDGGTAGMELLGDMANRDHLIIADAIVSKKNAPGTMMILRDEEVPALFTNKISPHQLGLADVLSALRFTGEFPKKLTLVGVIPESLEPHIGLTPTVEAMIEPALEQVLAALRESGVEAIPREAIHD | 5.25 ± 0.57 h | 4.51 ± 0.38 h | 4.14 ± 0.58 h | 5.3 ± 0.96 h | 3.53 ± 0.16 h | 3.09 ± 0.27 h | 5.7 ± 1.1 h | 11.5 ± 0.37 h | 4.28 ± 0.7 h | 6.81 ± 0.15 h | 6.77 ± 0.8 h | 11 ± 0.18 h
5 | MNILGFFQRLGRALQLPIAVLPVAALLLRFGQPDLLNVAFIAQAGGAIFDNLALIFAIGVASSWSKDSAGAAALAGAVGYFVLTKAMVTINPEINMGVLAGIITGLVGGAAYNRWSDIKLPDFLSFFGGKRFVPIATGFFCLVLAAIFGYVWPPVQHAIHAGGEWIVSAGALGSGIFGFINRLLIPTGLHQVLNTIAWFQIGEFTNAAGTVFHGDINRFYAGDGTAGMFMSGFFPIMMFGLPGAALAMYFAAPKERRPMVGGMLLSVAVTAFLTGVTEPLEFLFMFLAPLLYLLHALLTGISLFVATLLGIHAGFSFSAGAIDYALMYNLPAASQNVWMLLVMGVIFFAIYFVVFSLVIRMFNLKTPGREDKEDEIVTEEANSNTEEGLTQLATNYIAAVGGTDNLKAIDACITRLRLTVADSARVNDTMCKRLGASGVVKLNKQTIQVIVGAKAESIGDAMKKVVARGPVAAASAEATPATAAPVAKPQAVPNAVSIAELVSPITGDVVALDQVPDEAFASKAVGDGVAVKPTDKIVVSPAAGTIVKIFNTNHAFCLETEKGAEIVVHMGIDTVALEGKGFKRLVEEGAQVSAGQPILEMDLDYLNANARSMISPVVCSNIDDFSGLIIKAQGHIVAGQTPLYEIKK | 6.3 ± 0.38 h | 6.68 ± 1.1 h | 6.55 ± 1.2 h | 5.86 ± 0.12 h | 5.83 ± 0.32 h | 3.142 ± 0.004 h | 5.88 ± 0.17 h | 11.9 ± 1.4 h | 5.91 ± 0.66 h | 11.5 ± 0.56 h | 6.04 ± 0.14 h | 12.6 ± 0.78 h
6 | MPDSRKARRIADPGLQPERTSLAWFRTMLGYGALMALAIKHNWHQAGMLFWISIGILAIVALILWHYTRNRNLMDVTNSDFSQFHVVRDKFLISLAVLSLAILFAVTHIHQLIVFIERVA [P0ADL6] |  |  |  |  |  |  |  |  |  | 8.68 h |  | 
7 | MNPVDRPLLDIGLTRLEFLRISGKGLAGLTIAPALLSLLGCKQEDIDSGTVGLINTPKGVLVTQRARCTGCHRCEISCTNFNDGSVGTFFSRIKIHRNYFFGDNGVGSGGGLYGDLNYTADTCRQCKEPQCMNVCPIGAITWQQKEGCITVDHKRCIGCSACTTACPWMMATVNTESKKSSKCVLCGECANACPTGALKIIEWKDITV [P0AAL6] |  |  |  |  |  |  |  | > 16 h |  |  |  | 
8 | MTEAMKITLSTQPADARWGEKATYSINNDGITLHLNGADDLGLIQRAARKIDGLGIKHVQLSGEGWDADRCWAFWQGYKAPKGTRKVVWPDLDDAQRQELDNRLMIIDWVRDTINAPAEELGPSQLAQRAVDLISNVAGDRVTYRITKGEDLREQGYMGLHTVGRGSERSPVLLALDYNPTGDKEAPVYACLVGKGITFDSGGYSIKQTAFMDSMKSDMGGAATVTGALAFAITRGLNKRVKLFLCCADNLISGNAFKLGDIITYRNGKKVEVMNTDAEGRLVLADGLIDASAQKPEMIIDAATLTGAAKTALGNDYHALFSFDDALAGRLLASAAQENEPFWRLPLAEFHRSQLPSNFAELNNTGSAAYPAGASTAAGFLSHFVENYQQGWLHIDCSATYRKAPVEQWSAGATGLGVRTIANLLTA | 5.81 ± 0.29 h | 5.46 ± 0.11 h | 5.706 ± 0.054 h | 5.758 ± 0.022 h | 5.22 ± 0.19 h | 3.45 ± 0.34 h | 6.53 ± 0.15 h | 10.4 ± 0.37 h | 5.61 ± 0.15 h | 10.4 ± 1.1 h | 5.543 ± 0.044 h | 12.5 ± 0.4 h
9 | MKLTDADNAADGIFFPALEQNMMGAVLINENDEVMFFNPAAEKLWGYKREEVIGNNIDMLIPRDLRPAHPEYIRHNREGGKARVEGMSRELQLEKKDGSKIWTRFALSKVSAEGKVYYLALVRDASVEMAQKEQTRQLIIAVDHLDRPVIVLDPERHIVQCNRAFTEMFGYCISEASGMQPDTLLNIPEFPADNRIRLQQLLWKTARDQDEFLLLTRTGEKIWIKASISPVYDVLAHLQNLVMTFSDITEERQIRQLEGNILAAMCSSPPFHEMGEIICRNIESVLNESHVSLFALRNGMPIHWASSSHGAEIQNAQSWSATIRQRDGAPAGILQIKTSSGAETSAFIERVADISQHMAALALEQEKSRQHIEQLIQFDPMTGLPNRNNLHNYLDDLVDKAVSPVVYLIGVDHIQDVIDSLGYAWADQALLEVVNRFREKLKPDQYLCRIEGTQFVLVSLENDVSNITQIADELRNVVSKPIMIDDKPFPLTLSIGISYDLGKNRDYLLSTAHNAMDYIRKNGGNGWQFFSPAMNEMVKERLVLGAALKEAISNNQLKLVYQPQIFAETGELYGIEALARWHDPLHGHVPPSRFIPLAEEIGEIENIGRWVIAEACRQLAEWRSQNIHIPALSVNLSALHFRSNQLPNQVSDAMHAWGIDGHQLTVEITESMMMEHDTEIFKRIQILRDMGVGLSVDDFGTGFSGLSRLVSLPVTEIKIDKSFVDRCLTEKRILALLEAITSIGQSLNLTVVAEGVETKEQFEMLRKIHCRVIQGYFFSRPLPAEEIPGWMSSVLPLKI | 5.66 ± 0.45 h | 3.42 ± 0.28 h | 4.21 ± 0.49 h | 3.8 ± 0.26 h | 3.55 ± 0.9 h | 1.63 ± 0.42 h | 4.27 ± 0.69 h | 6.85 ± 0.2 h | 4.01 ± 0.26 h | 7.043 ± 0.059 h | 2.56 ± 0.83 h | 4.93 ± 0.014 h
